Experiment [1] addresses recombinant HIV-1 Env (subtype B; MN) protein (HIV-1 (subtype B, MN), UniProt P05877 32-513). Briefly: binding ELISA, serial dilutions of day 14 mouse sera (FIG. 64A). A general note: ELISA stands for enzyme-linked immunosorbent assay.
The target in experiment [2] is Env of pseudotyped HIV-1 Q23Env17 virus (clade A, tier 1) (HIV-1 (clade A, Q23Env17)). Briefly: cell-based or functional assay.
In experiment [3] the target is Env of pseudotyped HIV-1 SF162S virus (clade B, tier 1) (HIV-1 (clade B, SF162S)). Kind of experiment: cell-based or functional assay.
Experiment [4] concerns the target Env of pseudotyped HIV-1 Bal26 virus (clade B, tier 1) (HIV-1 (clade B, Bal26)). Briefly: cell-based or functional assay.

B1: CHIKV-IgG (full-length anti-CHIKV Env human IgG from a single plasmid) (antibody, V domains shown)
VH: QVQLQQPGAALVKPGASAMMSCKASGYTFTSYWITWVKQRPGQGLEWIGDIYPGTGRTIYKEKFKTKATLTVDTSSSTAFMQLNSLTSEDSAVYYCARGYGSPYYALDYWGQGTSVTVSS
VL: DIVLTQSPASLAVSQGQRATISCKASQSVDYDGDSYVNWYQQKPGQSPKLLIYDASNLESGIPARFSGSGSGTDFTLNIHPVEEEDVATYYCQESNEDPRTFGGGTKLEIKR
In the case of B1, in experiment [1], the binding result is reported as “no binding”.

B2: CHIKV-Env-Fab (Fab, V domains shown)
VH: QVQLVQSGSELKKPGASVKVSCKASGYTLTRYAMTWVRQAPGQGLEWMGWINTYTGNPTYVQGFTGRFVFSLDTSVSTAFLHITSLKAEDTAVYFCAREGGARGFDYWGQGTLVTVSS
VL: QSVLTQPPSVSGAPGQRVTISCTGSSSNIGASHDVHWYQQLPGTAPTLLIYVNSNRPSGVPDRFSGSKSGTSASLAITGLQAEDEADYYCQSYDSNLSGSAVFGGGTKLTVLG
Take B2: the binding result in experiment [1] was “no binding”.

B3: HIV-1 Env-Fab (Fab generated from the VRC01 antibody, expressed from pHIV-1Env-Fab) (Fab, V domains shown)
VH: QVQLVQSGGQMKKPGESMRISCRASGYEFIDCTLNWIRLAPGKRPEWMGWLKPRGGAVNYARPLQGRVTMTRDVYSDTAFLELRSLTVDDTAVYFCTRGKNCDYNWDFEHWGRGTPVIVSS
VL: QIVLTQSPGTLSLSPGETAIISCRTSQYGSLAWYQQRPGQAPRLVIYSGSTRAAGIPDRFSGSRWGPDYNLTISNLESGDFGVYYCQQYEFFGQGTKVQVDI
In the case of B3, the figures for the “plateau percent neutralization (TZM-Bl luciferase assay, sera at 1:50)” value in experiment [2], in experiment [3] and in experiment [4] were roughly 60%, roughly 70% and roughly 62%, respectively.

Values taken from patent US20220112273A1 (University of Pennsylvania, published 2022).
